Common to all, as to assay: AUC
The target in assay [1] is PcdhγC5 EC2-EC6 S116R (mouse).
For assay [2], the target named is PcdhγC5 EC2-EC6 (mouse).
Assay [3] has as its target Pcdhα7 EC1-EC5 (mouse).
Assay [4] concerns the target PcdhγC5 EC1-EC6 (complete ectodomain) (mouse).
The target in assay [5] is PcdhγA8 EC2-EC6 (mouse).
In assay [6] the target is PcdhγC5 EC1-EC5 (mouse).
Assay [7] has as its target PcdhγB6 EC1-EC4.
Assay [8] has as its target PcdhγB6 EC1-EC6 (complete ectodomain).
Assay [9] addresses PcdhαC2 EC1-EC4 (mouse).
In assay [10] the target is PcdhαC2 EC1-EC5 (mouse).
In assay [11] the target is PcdhγC5 EC1-EC6 S116R (mouse).
For assay [12], the target named is PcdhαC2 EC1-EC6 (complete ectodomain) (mouse).
The target of assay [13] is PcdhαC2 EC1-EC6 S118R (mouse).
Assay [14] has as its target PcdhγA8 EC1-EC4 (mouse).
In assay [15] the target is PcdhαC2 EC2-EC6 (mouse).

With “PcdhγC5 EC2-EC6 S116R (domain or fragment)”, in [1], the Kd stood at 14 µM and the stoichiometry N is 2. Take PcdhγC5 EC2-EC6 (domain or fragment): in [2], the stoichiometry N came to 2.

Turning to Pcdhα7 EC1-EC5 (domain or fragment), in assay [3], the Kd came to 2.9 µM and the stoichiometry N came to 2. “PcdhγC5 EC1-EC6 (complete ectodomain) (domain or fragment)”: the stoichiometry N in assay [4] was 4.

Consider PcdhγA8 EC2-EC6 (domain or fragment), for which, in [5], the Kd was found to be 23 µM and the stoichiometry N was 2.

In [6], PcdhγC5 EC1-EC5 (domain or fragment) registered a Kd of 100 µM and a stoichiometry N of 2. For PcdhγB6 EC1-EC4 (domain or fragment), in assay [7], the dissociation constant Kd was determined as 29 µM and the stoichiometry N turned out to be 2. “PcdhγB6 EC1-EC6 (complete ectodomain) (domain or fragment)” showed a stoichiometry N in assay [8] of 4. In assay [9], PcdhαC2 EC1-EC4 (domain or fragment) showed a Kd of 20 µM and a stoichiometry N of 2. Turning to PcdhαC2 EC1-EC5 (domain or fragment), in assay [10], the Kd came out at 5.9 µM and the stoichiometry N was 2.

As for “PcdhγC5 EC1-EC6 S116R (domain or fragment)”, in assay [11], the Kd came to 5.7 µM and the stoichiometry N was 2. “PcdhαC2 EC1-EC6 (complete ectodomain) (domain or fragment)”: in [12], the Kd was 0.1 µM and the stoichiometry N was 4. In assay [13], “PcdhαC2 EC1-EC6 S118R (domain or fragment)” yielded a Kd of 1.8 µM and a stoichiometry N of 4. In [14], PcdhγA8 EC1-EC4 (domain or fragment) yielded a Kd of 30 µM and a stoichiometry N of 2. Substance PcdhαC2 EC2-EC6 (domain or fragment) yielded a stoichiometry N in assay [15] of 2.

Usually Kd stands for the equilibrium constant for the complex coming apart. A word on the stoichiometry N: it is the number of molecules, sites or subunits per partner or assembly.

Source of the values: paper PMC4624033.
